# Reference: patent US7252958 (Novartis, dated 2007)
# Biological target: the molecule itself
# Test: X-ray crystal structure of CD81-LEL
protein,measurement,value
"CD81-LEL (large extracellular loop of human CD81, amino acids 113-201) with C-terminal His-tag (receptor, Made in E. coli as a fusion with S. aureus Protein A and released by protease (thrombin) cleavage; it forms a homodimer in the crystal, with two chains per asymmetric unit; also called LEL-(His)6; hCD81-LEL) FVNKDQIAKDVKQFYDQALQQAVVDDDANNAKAVVKTFHETLDCCGSSTLTALTTSVLKNNLCPSGSNIISNLFKEDCHQKIDDLFSGKHHHHHH",binding result,binds
